The source of these data is PMC10042821, “Cryo-EM structure of human eIF5A-DHS complex reveals the molecular basis of hypusination-associated neurodegenerative disorders” (Nature Communications, 2023).

What all share (details): both partners purified
Assay [1] has as its target T1, deoxyhypusine synthase, wild type, His-tagged (human, UniProt P49366 1-369, RED-tris-NTA 2nd Generation dye on the His tag).
T1 construct: human deoxyhypusine synthase, Uniprot P49366, residues 1-369, in pET24d with N-terminal 6xHis-tag and TEV site; also called DHS; DHS wt; source: E. coli, purified; not shown: 6xHis, N-terminal, kept
T1 sequence (looked up): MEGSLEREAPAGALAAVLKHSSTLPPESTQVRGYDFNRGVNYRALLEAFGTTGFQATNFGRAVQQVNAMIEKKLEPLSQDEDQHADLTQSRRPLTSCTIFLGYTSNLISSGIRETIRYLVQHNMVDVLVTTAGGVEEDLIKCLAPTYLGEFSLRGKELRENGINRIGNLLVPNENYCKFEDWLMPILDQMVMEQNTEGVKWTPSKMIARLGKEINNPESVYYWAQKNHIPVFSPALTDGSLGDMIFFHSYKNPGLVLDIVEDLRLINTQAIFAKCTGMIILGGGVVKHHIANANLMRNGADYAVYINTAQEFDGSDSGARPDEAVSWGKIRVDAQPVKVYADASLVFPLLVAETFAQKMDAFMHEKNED
The assay can be described thus: MST; His-tagged DHS variants labelled with RED-tris-NTA 2nd Generation, 8.32 nM; eIF5A titrated, sixteen dilutions 0.00175–57.5 μM; 50 mM Tris, 200 mM NaCl, 5 mM β-ME pH 8; Monolith NT.115, 40% excitation power, 60% MST power; no NAD or SPD.

Assay [2] deals with T2, deoxyhypusine synthase L295A, His-tagged (human, UniProt P49366 1-369, L295A, RED-tris-NTA 2nd Generation dye on the His tag).
T2 construct: human deoxyhypusine synthase, Uniprot P49366, residues 1-369, site-directed mutant of the pET24d full-length construct; also called DHS L295A; source: E. coli, purified; not shown: 6xHis, N-terminal, kept
T2 sequence (looked up): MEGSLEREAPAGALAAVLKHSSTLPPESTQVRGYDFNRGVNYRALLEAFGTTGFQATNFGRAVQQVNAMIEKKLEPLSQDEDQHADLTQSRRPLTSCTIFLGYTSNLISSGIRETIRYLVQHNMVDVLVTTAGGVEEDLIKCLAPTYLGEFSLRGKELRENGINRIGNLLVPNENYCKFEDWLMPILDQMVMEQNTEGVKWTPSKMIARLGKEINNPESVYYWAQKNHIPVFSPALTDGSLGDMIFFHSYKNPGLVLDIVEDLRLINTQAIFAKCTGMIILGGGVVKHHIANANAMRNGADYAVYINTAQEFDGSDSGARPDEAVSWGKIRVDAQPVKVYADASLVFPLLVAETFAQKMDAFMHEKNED
The description is as above.

Assay [3] concerns the target T3, deoxyhypusine synthase K329A, His-tagged (human, UniProt P49366 1-369, K329A).
T3 construct: deoxyhypusine synthase (DHS), Homo sapiens, UniProt P49366, residues 1-369; also called DHS^K329A; source: E. coli, purified; His-tagged protein labelled with RED-tris-NTA for MST; not shown: His6, N-terminal, kept
T3 sequence (looked up): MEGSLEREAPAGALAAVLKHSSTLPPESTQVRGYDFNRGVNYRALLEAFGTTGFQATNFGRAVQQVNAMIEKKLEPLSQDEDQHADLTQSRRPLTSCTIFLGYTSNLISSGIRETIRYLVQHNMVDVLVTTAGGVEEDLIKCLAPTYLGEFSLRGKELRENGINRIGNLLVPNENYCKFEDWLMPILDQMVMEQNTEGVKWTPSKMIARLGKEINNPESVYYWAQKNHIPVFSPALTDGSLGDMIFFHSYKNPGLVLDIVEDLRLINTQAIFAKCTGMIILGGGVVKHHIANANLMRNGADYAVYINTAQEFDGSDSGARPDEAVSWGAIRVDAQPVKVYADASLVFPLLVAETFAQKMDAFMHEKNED
The assay can be described thus: MST; Monolith NT.115; 8.32 nM His-tagged DHS labelled with RED-tris-NTA, eIF5A titrated 0.00175-57.5 uM; 50 mM Tris, 200 mM NaCl, 5 mM beta-ME pH 8; free buffer.

Assay [4] has as its target T4, deoxyhypusine synthase W327A, His-tagged (human, UniProt P49366 1-369, W327A).
T4 construct: deoxyhypusine synthase (DHS), Homo sapiens, UniProt P49366, residues 1-369; source: E. coli, purified; His-tagged protein labelled with RED-tris-NTA for MST; not shown: His6, N-terminal, kept
T4 sequence (looked up): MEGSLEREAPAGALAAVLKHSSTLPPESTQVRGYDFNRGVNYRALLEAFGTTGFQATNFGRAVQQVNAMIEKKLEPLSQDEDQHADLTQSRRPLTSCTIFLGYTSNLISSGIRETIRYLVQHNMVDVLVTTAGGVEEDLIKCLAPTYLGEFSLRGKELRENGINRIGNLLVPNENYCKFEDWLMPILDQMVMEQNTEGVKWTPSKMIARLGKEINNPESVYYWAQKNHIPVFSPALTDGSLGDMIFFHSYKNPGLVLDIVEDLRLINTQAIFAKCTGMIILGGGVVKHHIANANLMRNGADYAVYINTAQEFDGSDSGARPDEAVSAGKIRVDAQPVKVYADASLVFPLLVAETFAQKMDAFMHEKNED
Described as above.

Assay [5] addresses T5, deoxyhypusine synthase, wild type, His-tagged (human, UniProt P49366 1-369).
T5 construct: deoxyhypusine synthase (DHS), Homo sapiens, UniProt P49366, residues 1-369; N-terminal 6xHis-tag followed by a TEV site (pET24d); tag kept for the His-tag labelling in MST; also called DHS; DHS^wt; source: E. coli, purified; His-tagged protein labelled with RED-tris-NTA for MST; not shown: His6, N-terminal, kept
T5 sequence (looked up): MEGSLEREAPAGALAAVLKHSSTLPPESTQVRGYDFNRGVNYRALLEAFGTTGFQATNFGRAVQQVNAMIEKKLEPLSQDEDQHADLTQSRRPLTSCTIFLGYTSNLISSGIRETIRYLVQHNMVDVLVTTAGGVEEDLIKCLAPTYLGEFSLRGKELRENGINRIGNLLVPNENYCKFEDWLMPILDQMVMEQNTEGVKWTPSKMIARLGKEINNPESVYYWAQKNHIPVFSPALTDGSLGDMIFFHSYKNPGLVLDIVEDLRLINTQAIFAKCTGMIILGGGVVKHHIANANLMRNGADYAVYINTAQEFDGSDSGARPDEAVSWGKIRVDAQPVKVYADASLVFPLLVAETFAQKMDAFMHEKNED
The description is as above.

B1: eukaryotic translation factor 5A (eIF5A-1), residues 15-151 (domain or fragment)
chain: not shown
notes: human eIF5A1, residues 15-151, from pET28-MHL (Addgene); The purification protocol removes the tag with TEV; source: E. coli, purified (HisTrap, TEV cleavage, reverse HisTrap, SEC); not shown: His tag, N-terminal, cleaved
On to B1, for which the equilibrium dissociation constant (Kd) (usually the constant that tells how readily two partners part at equilibrium) was determined as 40 ± 9 nM in assay [1] and 393 ± 107 nM in assay [2].

B2: eukaryotic translation factor 5A-1 (eIF5A-1), residues 15-151 (domain or fragment)
chain: not shown
notes: eIF5A1 (eukaryotic translation factor 5A-1), human, residues 15-151, from pET28-MHL (Addgene); The general purification removes the His tag with TEV; A His-tagged eIF5A1 was used only in the hypusination assay; source: E. coli, purified (HisTrap, TEV cleavage, reverse HisTrap, SEC); not shown: His tag, N-terminal, cleaved
On to B2, for which the Kd was 129 ± 37.9 nM in assay [3], 602 ± 284 nM in assay [4] and 33.8 ± 8.5 nM in assay [5].
